Laboratory results from paper PMC9482650, “Quantitative fragmentomics allow affinity mapping of interactomes” (Nature Communications, 2022).

T1: NHERF3_1, Q5T2W1
T1 sequence (Q5T2W1 4-100, limits assumed, looked up): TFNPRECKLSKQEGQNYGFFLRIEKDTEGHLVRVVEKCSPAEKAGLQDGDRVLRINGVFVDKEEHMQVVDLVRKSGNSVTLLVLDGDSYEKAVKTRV

T2: SYNJ2BP, P57105
T2 sequence (P57105 8-110, limits assumed, looked up): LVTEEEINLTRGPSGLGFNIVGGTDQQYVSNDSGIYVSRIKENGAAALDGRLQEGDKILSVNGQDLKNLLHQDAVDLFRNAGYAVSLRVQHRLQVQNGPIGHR


The binders below were run against T1, NHERF3_1, Q5T2W1 (assay: holdup assay). Conditions: plain residues with an end cap or a label only (N-terminal biotin on a linker: ado-ado).
Design: key: below the threshold = too weak to quantify, mostly under pKd 3.1 to 4
For DAAHHDESNC [FMNL3, Q8IVF7], the pKd was “below the threshold”.
In the case of IGHEDLETAV [DGKI, O75912], the pKd is reported as 4.75.
For PDSYHRRDFW [U2AF2, P26368], the pKd was “below the threshold”.
For SQDPKKPSRV [CBY2, Q8NA61], the pKd was “below the threshold”.
EKPIDSETKM [SLC1A3, P43003] was tested, and the pKd was 5.23.
ELKAEDEVQI [DCHS2, Q6V1P9] was tested, and the pKd was “below the threshold”.

Same assay, conditions: plain residues with an end cap or a label only (N-terminal biotin on a linker: ado-ado, ttds)
For SNAKAVETDV [KCNA4, P22459], the pKd was “below the threshold”.

Same assay, conditions: plain residues with an end cap or a label only (N-terminal biotin on a linker: ahx)
SAPATLSSRA [PDLIM2, Q96JY6] was tested, and the pKd was “below the threshold”.
With PKMKLNETSF [SHKBP1, Q8TBC3] the pKd was 4.55.
ADENEQVSAV [RAPGEF6, Q8TEU7] was tested, and the pKd was 3.53.
Binder KEYDDELTFF [USH1C, Q9Y6N9] has a pKd of 4.27.
In the case of HSATSVHTSV [MTMR1, Q13613], the pKd is reported as “below the threshold”.
VNENQKEYFF [CNTNAP4, Q9C0A0] was tested, and the pKd was 4.91.
Work on KDECVIATEV [DLL1, O00548] yielded a pKd of 3.88.
With YNSFLSVTTV [PDZRN3, Q9UPQ7] the pKd was “below the threshold”.
AKPQPVDSWV [ARVCF, O00192] was tested, and the pKd was “below the threshold”.
SKKNELFSNL [NHERF1, O14745] was tested, and the pKd was “below the threshold”.

Same assay, conditions: plain residues with an end cap or a label only (N-terminal biotin on a linker: ttds)
In the case of DLDEEEDTHL [PODXL, O00592], the pKd is reported as 4.5.
With NPDALPETLV [ARHGAP6, O43182] the pKd was 4.55.
PFRSRSPSEV [GPR6, P46095] was tested, and the pKd was “below the threshold”.
In the case of GRLLGLETNV [ARHGEF26, Q96DR7], the pKd is reported as “below the threshold”.
For KQVVPFSSSV [GDA, Q9Y2T3], the pKd was 4.31.
In the case of QRPYRRESEI [KCNJ12, Q14500], the pKd is reported as “below the threshold”.
Binder FVETQHQTQV [FAT3, Q8TDW7] has a pKd of 4.72.
Binder GARVSKETPL [MAPK12, P53778] has a pKd of 5.56.

The binders below were run against T2, SYNJ2BP, P57105 (assay: holdup assay). Conditions: plain residues with an end cap or a label only (N-terminal biotin on a linker: ado-ado).
Design: key: below the threshold = too weak to quantify, mostly under pKd 3.1 to 4
For DAAHHDESNC [FMNL3, Q8IVF7], the pKd was 3.5.
IGHEDLETAV [DGKI, O75912] showed a pKd of 5.25.
PDSYHRRDFW [U2AF2, P26368] was tested, and the pKd was “below the threshold”.
SQDPKKPSRV [CBY2, Q8NA61] was tested, and the pKd was 3.66.
EKPIDSETKM [SLC1A3, P43003] was tested, and the pKd was “below the threshold”.
With ELKAEDEVQI [DCHS2, Q6V1P9] the pKd was “below the threshold”.

Same assay, conditions: plain residues with an end cap or a label only (N-terminal biotin on a linker: ado-ado, ttds)
For SNAKAVETDV [KCNA4, P22459], the pKd was 4.37.

Same assay, conditions: plain residues with an end cap or a label only (N-terminal biotin on a linker: ahx)
SAPATLSSRA [PDLIM2, Q96JY6] was tested, and the pKd was “below the threshold”.
With PKMKLNETSF [SHKBP1, Q8TBC3] the pKd was “below the threshold”.
In the case of ADENEQVSAV [RAPGEF6, Q8TEU7], the pKd is reported as 3.74.
KEYDDELTFF [USH1C, Q9Y6N9] was tested, and the pKd was “below the threshold”.
HSATSVHTSV [MTMR1, Q13613] was tested, and the pKd was 4.42.
In the case of VNENQKEYFF [CNTNAP4, Q9C0A0], the pKd is reported as “below the threshold”.
KDECVIATEV [DLL1, O00548] was tested, and the pKd was 4.33.
YNSFLSVTTV [PDZRN3, Q9UPQ7] was tested, and the pKd was “below the threshold”.
For AKPQPVDSWV [ARVCF, O00192], the pKd was 5.04.
For SKKNELFSNL [NHERF1, O14745], the pKd was “below the threshold”.

Same assay, conditions: plain residues with an end cap or a label only (N-terminal biotin on a linker: ttds)
With DLDEEEDTHL [PODXL, O00592] the pKd was “below the threshold”.
With NPDALPETLV [ARHGAP6, O43182] the pKd was 4.06.
With PFRSRSPSEV [GPR6, P46095] the pKd was 4.18.
For GRLLGLETNV [ARHGEF26, Q96DR7], the pKd was 4.86.
Work on KQVVPFSSSV [GDA, Q9Y2T3] yielded a pKd of 5.
QRPYRRESEI [KCNJ12, Q14500] was tested, and the pKd was 5.17.
FVETQHQTQV [FAT3, Q8TDW7] gave a pKd of 4.08.
In the case of GARVSKETPL [MAPK12, P53778], the pKd is reported as 4.69.
